The source of these data is PMC10789646, “Uncovering the non-histone interactome of the BRPF1 bromodomain using site-specific azide-acetyllysine photochemistry” (The Journal of Biological Chemistry, 2023).

Positions count from the first letter of the chain named. Where no end group is shown, it is not given here.

First the molecules themselves.
B1: WT BRPF1 bromodomain (domain or fragment)
chain: MEMQLTPFLILLRKTLEQLQEKDTGNIFSEPVPLSEVPDYLDHIKKPMDFFTMKQNLEAYRYLNFDDFEEDFNLIVSNCLKYNAKDTIFYRAAVRLREQGGAVLRQARRQAEKMG
notes: bromodomain of bromodomain-PHD finger protein 1 (BRPF1); vector pNIC28-Bsa4; also called bromodomain-PHD finger protein 1 bromodomain; source: E. coli One Shot BL21 star (DE3), purified (Ni-NTA, Superdex-75)
B2: BRPF1 bromodomain N651AzF (domain or fragment)
chain: B1 chain with N26F
modifications: 4-azido-L-phenylalanine (AzF) at 651
notes: bromodomain of BRPF1 with the unnatural amino acid 4-azido-L-phenylalanine in place of N651; also called BRPF1-N651AzF; engineered BRPF1 bromodomain; source: E. coli One Shot BL21 Star (DE3) with pEVOL-pAzF (amber suppression), purified (Ni-NTA, Superdex-75); not shown: 6xHis, N-terminal, kept
B3: diacetylated ILF3 peptide 8 (peptide)
peptide: RVGLVAK(Ac)GLLLK(Ac)G
notes: holds the KGLLLK (100-105) motif; also called RVGLVAKacGLLLKacG 8; source: synthetic peptide (GL Biochem Ltd and S. Biochem Ltd, HPLC purified)

Test [1] concerns the target histone H4K5acK8ac peptide 2 (acetyl-lysine at K5 and K8). Put plainly: ITC; peptide (1.5 to 1.8 mM, syringe) injected into protein (80 to 100 μM, cell); 15 °C; 50 mM Hepes pH 7.5, 200 mM NaCl, 5% glycerol; single-binding site model. The note with it: both partners purified. A general note: In ITC the heat of successive injections is recorded.
For test [2], the target named is B1. The description is as above. The note with it: both partners purified.

Take B1: the Kd – broadly, the free concentration of one partner at which half of the binding sites on the other are occupied at equilibrium, for simple one-to-one binding – in test [1] was 24.6 ± 3.1 µM.
The same measure, in the same setting: next, B2: 21.6 ± 2.1 µM.
In test [2], B3 showed a Kd of 250 ± 10.2 µM.
